T1: CD39 ATPase activity of lymphoma cells (Ramos) (Homo sapiens, UniProt P49961)
T1 construct: BL41, B104 and Ramos express CD39 at their cell surface; endogenous in cells; host or cells: Ramos Burkitt lymphoma cells
T1 sequence (P49961 1-510): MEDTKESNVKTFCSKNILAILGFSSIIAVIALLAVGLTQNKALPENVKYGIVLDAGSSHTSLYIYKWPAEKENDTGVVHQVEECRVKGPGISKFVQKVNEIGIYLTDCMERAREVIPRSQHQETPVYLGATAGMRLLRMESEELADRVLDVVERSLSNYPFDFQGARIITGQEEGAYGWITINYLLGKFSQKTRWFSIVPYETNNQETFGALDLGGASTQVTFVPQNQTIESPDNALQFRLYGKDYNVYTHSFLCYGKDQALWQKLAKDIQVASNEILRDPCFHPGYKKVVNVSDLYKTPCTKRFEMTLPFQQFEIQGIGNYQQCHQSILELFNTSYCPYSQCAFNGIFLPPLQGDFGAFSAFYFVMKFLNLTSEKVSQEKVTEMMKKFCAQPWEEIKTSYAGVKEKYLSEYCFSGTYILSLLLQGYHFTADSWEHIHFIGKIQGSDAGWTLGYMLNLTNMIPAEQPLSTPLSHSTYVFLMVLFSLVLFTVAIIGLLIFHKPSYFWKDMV

T2: CD39 ATPase activity of melanoma cells (SK-MEL-5) (Homo sapiens, UniProt P49961)
T2 construct: SK-MEL-5 and SK-MEL-28 cell lines display membranous expression of CD39; endogenous in cells; host or cells: SK-MEL-5 melanoma cells
T2 sequence (P49961 1-510): T1 sequence (P49961 1-510)

B1: BY40: murine CD39 antibody from hybridoma CNCM I-3889; VH SEQ ID NO: 1, VL SEQ ID NO: 5 (antibody, listed as Mus musculus)
VH: TRVKKPRETVKISCKASGYTFTHYGMNWVKQAPGKGLKWMGWINTYTGEPTYADDFKGRFAFSLEASVSTAYLQINNLKNEDTATYFCARRRYEGNYVFYYFDYWGQGTTLTVSSAKTTPPSVYPLAPGSAAQTNSMVTLGCLVKGYFPEQVTVTWNSGSLSSGVHTFPAVLQSDLYTLSSSVTVPS
light: DIQMTQSPASLSASVGETVTITCRASENIYSYFSWYQQKQGKSPQLLVYTAKTLAEGVPSRFSGSGSGTQFSLKINSLQPEDFGSYYCQHHYVTPYTFGGGTKLEIKRADAAPTVSIFPPSSEQLTSGGASVVCFLNNFYPKDINVKWKIDGSERQNGVLNSWTD
B2: BA54g: CD39 monoclonal antibody from hybridoma CNCM I-4171; VH SEQ ID NO: 11, VL SEQ ID NO: 15 (antibody, listed as Mus musculus, V domains shown)
VH: DVQLVESGGGLVQPGGSRKLSCAASGFTFSSFGMHWVRQAPEKGLEWVAYISSGSSIIYYADTVKGRFTISRDNPKNTLFLQMTSLGSEDTAMYYCARWSTTVVATDYWGQGTTLTVS
VL: NIVMTQSPKSMSMSVGERVTLTCKASENVVTYVSWYQQKPEQSPKLLIYGASNRYTGVPDRFTGSGSATDFTLTISSVQAEDLADYHCGQGYSYPYTFGGGTKLEIKR

Tests used:
[1] = system: CD4 and CD8 T cells (PBMC) cultured with CD39-expressing SK-MEL-5 melanoma cells; experiment: Inhibition of melanoma cell-mediated suppression: proliferation of CFSE-labelled T cells co-cultured with irradiated SK-MEL-5; assay type: cell-based, human; conditions: CFSE-labelled PBMC + irradiated SK-MEL-5, 5 days, BY40 5 μg/mL, POM-1 100 or 250 μM, flow cytometry; for CD4 T cell proliferation: FIG. 4A; for CD8 T cell proliferation: FIG. 4B
Experimental: (§1) FIG. 4: CD39 antibody (BY40) restores T cell responses against melanoma cells. 5×10^4 CFSE-labelled PBMC were cultured in the presence of 5×10^3 irradiated (100 Gy) SK-MEL-5 (NT). POM-1 (100 or 250 μM), BY40 or control isotype antibody D6212 (5 μg/mL) were added at the beginning of the culture and after 2 days of culture. After 5 days of culture, proliferation of CFSE-labelled CD4 (A) and CD8 (B) T cells was analysed by flow cytometry. Experiment was performed in duplicate and results are representative of 2 independent experiments.
as §1, with “5×10^4” for “FIG. 4: CD39 antibody (BY40) restores T cell responses against melanoma cells. 5×10^4”

[2] = target: T1, CD39 ATPase activity of lymphoma cells (Ramos); experiment: Inhibition of lymphoma-CD39 enzymatic (ATPase) activity, phosphate release measured with Malachite green; assay type: cell-based; conditions: Ramos cells cultured with increasing doses of mAb for 16 h, then 100 μM ATP for 15 min; FIG. 7
Experimental: (§2) FIG. 7: CD39 antibodies inhibit CD39 ATPase activity of lymphoma cells. 1×10^5 lymphoma cells (Ramos) were cultured in complete RPMI medium alone or in presence of BA54g, BY12 or BY40 mAbs, at the indicated concentrations, for 16 h. Cells were then washed three times in phosphate free buffer (10 mM glucose, 20 mM Hepes, 5 mM KCl, 120 mM NaCl, 2 mM CaCl2) and resuspended in the same buffer supplemented with 100 μM ATP for 15 min. Phosphate concentration in supernatants was measured after addition of Malachite green/polyvinylalcohol /ammonium mobylate solution for 20 min by a spectrophotometer at 620 nm and compared against a standard curve. Results are the mean of two independent experiments.
as §2, with “1×10^5” for “FIG. 7: CD39 antibodies inhibit CD39 ATPase activity of lymphoma cells. 1×10^5”, “KC1,” for “KCl,”

[3] = target: T2, CD39 ATPase activity of melanoma cells (SK-MEL-5); experiment: Inhibition of melanoma-CD39 enzymatic (ATPase) activity, phosphate release measured with Malachite green; assay type: cell-based; conditions: SK-MEL-5 cells cultured with mAb for 16 h, then 100 μM ATP for 15 min; FIG. 3
Experimental: (§3) FIG. 3: CD39 (BA54g) antibody inhibits CD39 ATPase activity of melanoma cells. 1×10^5 melanoma cells (SK-MEL-5) were cultured in complete RPMI medium alone or in presence of BA54g mAb for 16 h. Cells were then washed three times in phosphate free buffer (10 mM glucose, 20 mM Hepes, 5 mM KCl, 120 mM NaCl, 2 mM CaCl2) and resuspended in the same buffer supplemented with 100 μM ATP for 15 min. Phosphate concentration in supernatants was measured after addition of Malachite green/polyvinylalcohol/ammonium mobylate solution for 20 min by a spectrophotometer at 620 nm and compared against a standard curve. Experiment was performed in triplicate.
as §3, with “Protocol:” for “FIG. 3: CD39 (BA54g) antibody inhibits CD39 ATPase activity of melanoma cells.”, “min” for “min.”

Molecule	CD4 T cell proliferation [1]	CD8 T cell proliferation [1]	CD39 activity of lymphoma cells [2]	CD39 enzymatic activity of melanoma cells [3]
[Na+].[Na+].[Na+].[Na+].[Na+].[Na+].[O]=[W](=[O])([O-])[O-].[O]=[W](=[O])([O-])[O-].[O]=[W](=[O])([O-])[O-].[O]=[W](=[O])=[O].[O]=[W](=[O])=[O].[O]=[W](=[O])=[O].[O]=[W](=[O])=[O].[O]=[W](=[O])=[O].[O]=[W](=[O])=[O].[O]=[W](=[O])=[O].[O]=[W](=[O])=[O].[O]=[W](=[O])=[O] [POM-1, sodium metatungstate, reference compound]	increased	increased	–	–
B1	increased	increased	inhibited CD39 activity in a dose dependant manner	–
B2	–	–	inhibited CD39 activity in a dose dependant manner	inhibits CD39 enzymatic activity in a dose dependant manner
